Sequences and labels used below:
T1: human CD166 protein (human, UniProt Q13740 28-526)
T1 chain: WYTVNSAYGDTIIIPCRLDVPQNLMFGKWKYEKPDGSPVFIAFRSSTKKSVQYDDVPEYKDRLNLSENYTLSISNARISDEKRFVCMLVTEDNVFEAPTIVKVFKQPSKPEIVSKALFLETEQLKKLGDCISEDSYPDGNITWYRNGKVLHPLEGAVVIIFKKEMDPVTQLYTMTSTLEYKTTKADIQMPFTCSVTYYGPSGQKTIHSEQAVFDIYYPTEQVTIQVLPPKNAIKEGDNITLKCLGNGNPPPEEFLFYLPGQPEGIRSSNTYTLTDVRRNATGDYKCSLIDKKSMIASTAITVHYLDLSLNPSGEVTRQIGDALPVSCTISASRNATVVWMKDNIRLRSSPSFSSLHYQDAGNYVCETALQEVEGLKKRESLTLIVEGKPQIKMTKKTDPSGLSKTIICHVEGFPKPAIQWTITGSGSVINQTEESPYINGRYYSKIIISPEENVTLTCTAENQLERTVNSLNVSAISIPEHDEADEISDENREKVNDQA

B1: CD166-M9_vk3a/HcB (antibody, V domains shown)
VH: QITLKESGPTLVKPTQTLTLTCTFSGFSLSTYGMGVGWIRQPPGKALEWLANIWWSEDKHYSPSLKSRLTITKDTSKNQVVLTMTNMDPVDTATYYCVQIDYGNDYAFTYWGQGTLVTVSS
VL: DIVMTQSPLSLPVTPGEPASISCRSSQSLLHSNGITYLYWYLQKPGQSPQLLIYQMSNRASGVPDRFSGSGSGTDFTLKISRVEAEDVGVYYCAQNLELPYTFGQGTKLEIK
B2: CD166-M9_vK3b/HcB (antibody, V domains shown)
VH: B1 VH
VL: B1 VL with G69S
B3: CD166-M9_vK3b/HcC (antibody, V domains shown)
VH: B1 VH with M84I, M87V
VL: B1 VL with G69S
B4: CD166-M9_vK3a/HcC (antibody, V domains shown)
VH: B1 VH with M84I, M87V
VL: B1 VL
B5: CD166-M9_vK2/HcC (antibody, V domains shown)
VH: B1 VH with M84I, M87V
VL: B1 VL with Q27K, R59L, G69S
B6: human CD166 (receptor)
chain: T1 chain

Where a chain is given by its changes, count along the chain named.

We go through 6 molecules from US20160355587A1 (published 2016).

One experiment has as its target T1, human CD166 protein. The experiment is described as follows: FACS; apparent Kd.
B1: the Kd was determined as 2.88 nM. On the same count and under the same terms, for B2 the value was 2.61 nM; for B3, 3.19 nM. Still for that read-out and setting: for B4 the value was 3.76 nM.

As to B5, the Kd turned out to be 2.5 nM.

Another experiment concerns the target CD166-M9_chimera. The experiment is described as follows: FACS; apparent Kd.
As for B6, the Kd was found to be 1.12 nM.
